Experimental data reported in paper PMC13330650, “Phosphorylation of UDP-glucose dehydrogenase increases glycosaminoglycan biosynthesis and promotes tumor cell motility, spheroid growth, and therapeutic resistance” (Matrix biology : journal of the International Society for …, 2025).
Numbering of substitutions follows the chain as printed. Names and notes keep the numbering of the source. Values joined by “and” are separate entries in the source; they are usually repeats but may differ in a detail not shown here. Equal values may be shown once.

B1: UGDH T325D, obligate dimer mutant (enzyme, human)
chain: MFEIKKICCIGAGYVGGPTCSVIAHMCPEIRVTVVDVNESRINAWNSPTLPIYEPGLKEVVESCRGKNLFFSTNIDDAIKEADLVFISVNTPTKTYGMGKGRAADLKYIEACARRIVQNSNGYKIVTEKSTVPVRAAESIRRIFDANTKPNLNLQVLSNPEFLAEGTAIKDLKNPDRVLIGGDETPEGQRAVQALCAVYEHWVPREKILTTNTWSSELSKLAANAFLAQRISSINSISALCEATGADVEEVATAIGMDQRIGNKFLKASVGFGGSCFQKDVLNLVYLCEALNLPEVARYWQQVIDMNDYQRRRFASRIIDSLFNDVTDKKIAILGFAFKKDTGDTRESSSIYISKYLMDEGAHLHIYDPKVPREQIVVDLSHPGVSEDDQVSRLVTISKDPYEACDGAHAVVICTEWDMFKELDYERIHKKMLKPAFIFDGRRVLDGLHNELQTIGFQIETIGKKV
notes: UDP-glucose 6-dehydrogenase, human, with T325D; also called UGDH T325D dimeric mutant
B2: UGDH Δ132, hexameric mutant (enzyme, human)
chain: MFEIKKICCIGAGYVGGPTCSVIAHMCPEIRVTVVDVNESRINAWNSPTLPIYEPGLKEVVESCRGKNLFFSTNIDDAIKEADLVFISVNTPTKTYGMGKGRAADLKYIEACARRIVQNSNGYKIVTEKSTPVRAAESIRRIFDANTKPNLNLQVLSNPEFLAEGTAIKDLKNPDRVLIGGDETPEGQRAVQALCAVYEHWVPREKILTTNTWSSELSKLAANAFLAQRISSINSISALCEATGADVEEVATAIGMDQRIGNKFLKASVGFGGSCFQKDVLNLVYLCEALNLPEVARYWQQVIDMNDYQRRRFASRIIDSLFNTVTDKKIAILGFAFKKDTGDTRESSSIYISKYLMDEGAHLHIYDPKVPREQIVVDLSHPGVSEDDQVSRLVTISKDPYEACDGAHAVVICTEWDMFKELDYERIHKKMLKPAFIFDGRRVLDGLHNELQTIGFQIETIGKKV
notes: construct of earlier work; Named only once, as a control of the gel filtration
B3: UDP-glucose 6-dehydrogenase (UGDH), human, wild type, recombinant (enzyme, UniProt O60701 1-494, looked up)
chain: MFEIKKICCIGAGYVGGPTCSVIAHMCPEIRVTVVDVNESRINAWNSPTLPIYEPGLKEVVESCRGKNLFFSTNIDDAIKEADLVFISVNTPTKTYGMGKGRAADLKYIEACARRIVQNSNGYKIVTEKSTVPVRAAESIRRIFDANTKPNLNLQVLSNPEFLAEGTAIKDLKNPDRVLIGGDETPEGQRAVQALCAVYEHWVPREKILTTNTWSSELSKLAANAFLAQRISSINSISALCEATGADVEEVATAIGMDQRIGNKFLKASVGFGGSCFQKDVLNLVYLCEALNLPEVARYWQQVIDMNDYQRRRFASRIIDSLFNTVTDKKIAILGFAFKKDTGDTRESSSIYISKYLMDEGAHLHIYDPKVPREQIVVDLSHPGVSEDDQVSRLVTISKDPYEACDGAHAVVICTEWDMFKELDYERIHKKMLKPAFIFDGRRVLDGLHNELQTIGFQIETIGKKVSSKRIPYAPSGEIPKFSLQDPPNKKPKV
notes: UDP-glucose 6-dehydrogenase, human; In solution a mix of hexamer (trimer of dimers) and dimer; also called UGDH WT; WT UGDH
B4: UGDH S316D, phosphomimetic point mutant, recombinant (enzyme, human, UniProt O60701 1-494, looked up)
chain: B3 chain with S316D
notes: UDP-glucose 6-dehydrogenase, human
B5: UGDH S316A, phosphodeficient point mutant, recombinant (enzyme, human, UniProt O60701 1-494, looked up)
chain: B3 chain with S316A
notes: as for B4

Molecular target: the molecule itself
Assay: SEC; gel filtration chromatography of the purified enzyme, before addition of substrate and cofactor; hexamer and dimer peaks

Protein | stoichiometry N
B1 | 2
B2 | 6
B3 | 6 and 2
B4 | 2
B5 | 2

Molecular target: the molecule itself
Assay: SEC; gel filtration chromatography of the purified enzyme with substrate and cofactor added (holocomplex)

Protein | stoichiometry N
B4 | 6
B5 | 6
